The numbers were not newly measured in PMC10003451, “Phosphorylated Peptide Derived from the Myosin Phosphatase Target Subunit Is a Novel Inhibitor of Protein Phosphatase-1” (International Journal of Molecular Sciences, 2023), which cites them from elsewhere.

One data set has as its target T1, PP1c (Homo sapiens, UniProt P62136).
T1 construct: made in house; host or cells: E. coli
Also noted: method as in 2 sources, ref 30 = [30]; PMID 12030846; doi:10.1042/bj20020401; 30. Murányi A. MacDonald J.A. Deng J.T. Wilson D.P. Haystead T.A. Walsh M.P. Erdődi F. Kiss E. Wu Y. Hartshorne D.J. Phosphorylation of the myosin phosphatase target subunit by integrin-linked kinase ||| ref 31 = [31]; PMID 19531490; doi:10.1074/jbc.M109.019729; 31. Khromov A. Choudhury N. Stevenson A.S. Somlyo A.V. Eto M. Phosphorylation-dependent autoinhibition of myosin light chain phosphatase accounts for Ca 2+ sensitization force of smooth muscle contrac.

Another data set has as its system MP holoenzyme. Also noted: method as in PMID 19531490. Conditions: phosphorylated at Thr696.

T1 sequence (P62136 whole entry): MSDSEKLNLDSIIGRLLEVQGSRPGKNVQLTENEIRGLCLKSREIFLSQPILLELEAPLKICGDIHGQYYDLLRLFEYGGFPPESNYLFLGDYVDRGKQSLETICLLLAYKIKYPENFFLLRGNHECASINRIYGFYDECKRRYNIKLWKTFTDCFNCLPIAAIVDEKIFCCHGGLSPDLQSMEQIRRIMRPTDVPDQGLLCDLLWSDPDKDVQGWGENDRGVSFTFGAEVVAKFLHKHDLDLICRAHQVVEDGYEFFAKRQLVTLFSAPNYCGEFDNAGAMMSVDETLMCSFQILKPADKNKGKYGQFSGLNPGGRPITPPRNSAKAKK

B1: His-tagged MYPT1^514−963: C-terminal fragment of a recombinant His-tagged MYPT1 phosphorylated at Thr654 (protein, UniProt O14974 514-963, looked up, fragment)
chain: KENRDSSSLRTSSSYTRRKWEDDLKKNSSVNEGSTYHKSCSFGRRQDDLISSSVPSTTSTPTVTSAAGLQKSLLSSTSTTTKITTGSSSAGTQSSTSNRLWAEDSTEKEKDSVPTAVTIPVAPTVVNAAASTTTLTTTTAGTVSSTTEVRERRRSYLTPVRDEESESQRKARSRQARQSRRSTQGVTLTDLQEAEKTIGRSRSTRTREQENEEKEKEEKEKQDKEKQEEKKESETSREDEYKQKYSRTYDETYQRYRPVSTSSSTTPSSSLSTMSSSLYASSQLNRPNSLVGITSAYSRGITKENEREGEKREEEKEGEDKSQPKSIRERRRPREKRRSTGVSFWTQDSDENEQEQQSDTEEGSNKKETQTDSISRYETSSTSAGDRYDSLLGRSGSYSYLEERKPYSSRLEKDDSTDFKKLYEQILAENEKLKAQLHDTNMELTDLKLQ
modifications: His tag; phosphorylated Thr654
Consider B1, for which, in the data set with PP1c (phosphorylated at Thr654 (corresponding to Thr696 in the longer MYPT1 isoform), read-out: IC50, inhibition of PP1c (literature)), the IC50 – broadly, the concentration needed to halve the response being measured – is roughly 100 nM.

B2: GST-MYPT1^654−880: GST-MYPT1^654−880 fragment phosphorylated at Thr696 (protein, UniProt O14974 654-880, looked up, fragment)
chain: GTVSSTTEVRERRRSYLTPVRDEESESQRKARSRQARQSRRSTQGVTLTDLQEAEKTIGRSRSTRTREQENEEKEKEEKEKQDKEKQEEKKESETSREDEYKQKYSRTYDETYQRYRPVSTSSSTTPSSSLSTMSSSLYASSQLNRPNSLVGITSAYSRGITKENEREGEKREEEKEGEDKSQPKSIRERRRPREKRRSTGVSFWTQDSDENEQEQQSDTEEGSNKK
modifications: GST fusion; phosphorylated Thr696
notes: GST-MYPT1^654−880 fragment phosphorylated at Thr696
Take B2: the “inhibition of MP holoenzyme (literature)” value in the data set on MP holoenzyme is reported as “inhibited MP holoenzyme potently in nanomolar concentrations”. Besides, the “effect on PP1c (literature)” value in the data set with PP1c (phosphorylated at Thr696) is on record as “without effect on PP1c”.
